Data as given in the supplement of paper PMC6757056.
± gives the standard deviation of the averaged measurements.

B1: library; a variant is named by its letters at N, in order (parent)
chain: GCUGUCACCGGUGUAUUACCCUAGUGGUCGACCGGUCUGAUGAGUCUNNNNNNAGACGAAACAGC

Assays:
[1] = variants of: B1; assay: normalized RNA/DNA level with ligand (relative to sTRSVctl = 100) (log10 (% of sTRSVctl)); ligand: hypoxanthine (xanthine aptamer); higher = less ribozyme self-cleavage, higher mRNA level; settings: ligand concentration (+) RNA-Seq: 5 mM, HEK293T, reporter: mCherry (pCS4076), ligand present: yes
How it was run: (§1)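 Library plasmids encoding reporter-linked ribozyme switches (mCherry, or eGFP for some folinic acid experiments) were transfected into HEK293T at 4 µg per 6-well well. Ligand, when used, was added 1 h before transfection. Total RNA was extracted with EDTA 72 h later, then reverse-transcribed, amplified, barcoded and sequenced. RNA level was RNA reads over DNA reads, divided by a spiked-in non-cleaving control (or the top 25 sequences), ×100, log10; only sequences with ≥100 DNA reads were kept.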

[2] = variants of: B1; assay: normalized RNA/DNA level without ligand (relative to sTRSVctl = 100) (log10 (% of sTRSVctl)); ligand: hypoxanthine (xanthine aptamer); higher = less ribozyme self-cleavage, higher mRNA level; settings: HEK293T, reporter: mCherry (pCS4076), ligand present: no
How it was run: as §1

GCUGUCACCGGUGUAUUACCCUAGUGGUCGACCGGUCUGAUGAGUCUAGCCUCAGACGAAACAGC [AGCCUC]
normalized RNA/DNA level with ligand (log10) [1]: 2.01 ± 0.082
normalized RNA/DNA level without ligand (log10) [2]: 1.959 ± 0.019

GCUGUCACCGGUGUAUUACCCUAGUGGUCGACCGGUCUGAUGAGUCUGGCGCGAGACGAAACAGC [GGCGCG]
normalized RNA/DNA level with ligand (log10) [1]: 1.95 ± 0.028
normalized RNA/DNA level without ligand (log10) [2]: 1.81 ± 0.0088

GCUGUCACCGGUGUAUUACCCUAGUGGUCGACCGGUCUGAUGAGUCUGGCGCUAGACGAAACAGC [GGCGCU]
normalized RNA/DNA level with ligand (log10) [1]: 1.973 ± 0.003
normalized RNA/DNA level without ligand (log10) [2]: 2.03 ± 0.022

GCUGUCACCGGUGUAUUACCCUAGUGGUCGACCGGUCUGAUGAGUCUGGCGCCAGACGAAACAGC [GGCGCC]
normalized RNA/DNA level with ligand (log10) [1]: 2.004 ± 0.0022
normalized RNA/DNA level without ligand (log10) [2]: 1.93 ± 0.024

GCUGUCACCGGUGUAUUACCCUAGUGGUCGACCGGUCUGAUGAGUCUAGCGGCAGACGAAACAGC [AGCGGC]
normalized RNA/DNA level with ligand (log10) [1]: 1.959 ± 0.012
normalized RNA/DNA level without ligand (log10) [2]: 1.86 ± 0.042

GCUGUCACCGGUGUAUUACCCUAGUGGUCGACCGGUCUGAUGAGUCUUGCGGGAGACGAAACAGC [UGCGGG]
normalized RNA/DNA level with ligand (log10) [1]: 1.98 ± 0.11
normalized RNA/DNA level without ligand (log10) [2]: 1.754 ± 0.0048

GCUGUCACCGGUGUAUUACCCUAGUGGUCGACCGGUCUGAUGAGUCUUGCGGUAGACGAAACAGC [UGCGGU]
normalized RNA/DNA level with ligand (log10) [1]: 1.905 ± 0.01
normalized RNA/DNA level without ligand (log10) [2]: 1.742 ± 0.0036

GCUGUCACCGGUGUAUUACCCUAGUGGUCGACCGGUCUGAUGAGUCUGGCCUUAGACGAAACAGC [GGCCUU]
normalized RNA/DNA level with ligand (log10) [1]: 1.975 ± 0.013
normalized RNA/DNA level without ligand (log10) [2]: 1.968 ± 0.011

GCUGUCACCGGUGUAUUACCCUAGUGGUCGACCGGUCUGAUGAGUCUGGCCUCAGACGAAACAGC [GGCCUC]
normalized RNA/DNA level with ligand (log10) [1]: 1.99 ± 0.13
normalized RNA/DNA level without ligand (log10) [2]: 1.96 ± 0.084

GCUGUCACCGGUGUAUUACCCUAGUGGUCGACCGGUCUGAUGAGUCUGGCCUAAGACGAAACAGC [GGCCUA]
normalized RNA/DNA level with ligand (log10) [1]: 1.98 ± 0.063
normalized RNA/DNA level without ligand (log10) [2]: 1.98 ± 0.026

GCUGUCACCGGUGUAUUACCCUAGUGGUCGACCGGUCUGAUGAGUCUCGCGGCAGACGAAACAGC [CGCGGC]
normalized RNA/DNA level with ligand (log10) [1]: 1.99 ± 0.042
normalized RNA/DNA level without ligand (log10) [2]: 1.92 ± 0.034

GCUGUCACCGGUGUAUUACCCUAGUGGUCGACCGGUCUGAUGAGUCUCGCGGAAGACGAAACAGC [CGCGGA]
normalized RNA/DNA level with ligand (log10) [1]: 2 ± 0.046
normalized RNA/DNA level without ligand (log10) [2]: 1.863 ± 0.0046

GCUGUCACCGGUGUAUUACCCUAGUGGUCGACCGGUCUGAUGAGUCUCGCGGUAGACGAAACAGC [CGCGGU]
normalized RNA/DNA level with ligand (log10) [1]: 1.96 ± 0.025
normalized RNA/DNA level without ligand (log10) [2]: 1.87 ± 0.026

GCUGUCACCGGUGUAUUACCCUAGUGGUCGACCGGUCUGAUGAGUCUAGCGCAAGACGAAACAGC [AGCGCA]
normalized RNA/DNA level with ligand (log10) [1]: 1.94 ± 0.019
normalized RNA/DNA level without ligand (log10) [2]: 1.758 ± 0.0078

GCUGUCACCGGUGUAUUACCCUAGUGGUCGACCGGUCUGAUGAGUCUAGCGCCAGACGAAACAGC [AGCGCC]
normalized RNA/DNA level with ligand (log10) [1]: 1.93 ± 0.034
normalized RNA/DNA level without ligand (log10) [2]: 1.86 ± 0.04

GCUGUCACCGGUGUAUUACCCUAGUGGUCGACCGGUCUGAUGAGUCUUGCGAAAGACGAAACAGC [UGCGAA]
normalized RNA/DNA level with ligand (log10) [1]: 1.86 ± 0.021
normalized RNA/DNA level without ligand (log10) [2]: 1.724 ± 0.013

GCUGUCACCGGUGUAUUACCCUAGUGGUCGACCGGUCUGAUGAGUCUUGCGACAGACGAAACAGC [UGCGAC]
normalized RNA/DNA level with ligand (log10) [1]: 1.96 ± 0.0073
normalized RNA/DNA level without ligand (log10) [2]: 1.77 ± 0.028

GCUGUCACCGGUGUAUUACCCUAGUGGUCGACCGGUCUGAUGAGUCUUGCGAUAGACGAAACAGC [UGCGAU]
normalized RNA/DNA level with ligand (log10) [1]: 1.933 ± 0.011
normalized RNA/DNA level without ligand (log10) [2]: 1.79 ± 0.081

GCUGUCACCGGUGUAUUACCCUAGUGGUCGACCGGUCUGAUGAGUCUUGCGAGAGACGAAACAGC [UGCGAG]
normalized RNA/DNA level with ligand (log10) [1]: 1.868 ± 0.0049
normalized RNA/DNA level without ligand (log10) [2]: 1.658 ± 0.009

GCUGUCACCGGUGUAUUACCCUAGUGGUCGACCGGUCUGAUGAGUCUUGCCUUAGACGAAACAGC [UGCCUU]
normalized RNA/DNA level with ligand (log10) [1]: 1.939 ± 0.0041
normalized RNA/DNA level without ligand (log10) [2]: 1.9 ± 0.093

GCUGUCACCGGUGUAUUACCCUAGUGGUCGACCGGUCUGAUGAGUCUAGCCGUAGACGAAACAGC [AGCCGU]
normalized RNA/DNA level with ligand (log10) [1]: 1.92 ± 0.03
normalized RNA/DNA level without ligand (log10) [2]: 1.69 ± 0.024
